Data on 4 molecules can be found in US5614198A, “Bowman-Birk Inhibitor compositions for treatment of inflammatory disease” (The Trustees of the University of Pennsylvania, priority 1995, dated 1997).

Entries after “also recorded” stand apart in the source; their conditions may differ.

Data set [1] deals with proteolytic activity in colon mucosa. Briefly: proteolytic activity in colon mucosal biopsy samples of DMH-treated rats (MCA substrates). The data set is classed as in vivo, rat. The note with it: for levels of proteolytic activity in colon mucosa of DMH-exposed animals: one month after last DMH dose, 0.1% dietary BBIC, FIG. 5; for Protease Activity/μg protein, Glt-Gly-Arg-MCA, Mean / Protease Activity/μg protein, Boc-Val-Leu-Lys-MCA, Mean / Protease Activity/μg protein, Boc-Val-Pro-Arg-MCA, Mean: rat colon biopsy one month after last DMH injection (total 80 mg/kg), 0.1% dietary inhibitor where given, 1 animal, 3 samples; for Protease Activity/μg protein, Glt-Gly-Arg-MCA, Mean: control 1.21; for Protease Activity/μg protein, Boc-Val-Leu-Lys-MCA, Mean: control 3.07; for Protease Activity/μg protein, Boc-Val-Pro-Arg-MCA, Mean: control 15.97. The method, then: The levels of proteolytic activity were determined as following. Colon mucosal biopsy samples were thawed on ice and homogenized in ice-cold PBS in a sterile teflon-glass homogenizer. The level of proteolytic activity was measured by incubating aliquots of sample in 0.1M Tris (pH 7.5)-5 mM CaC12, with each of the following synthetic substrates: Boc-Val-Pro-Arg-MCA; Boc-Val-Leu-Lys-MCA; and Glt-Gly-Arg-MCA (Peninsula Laboratories, Inc., Belmont, Calif.). These substrates were selected since it is known that the proteolytic activity cleaving these substrates is affected by BBI. After a 2 hour incubation at 37° C., the reaction was terminated by dilution with 1.8 ml distilled H2 O. Release of the fluorescent reporter group, amino-methyl coumarin, was determined spectrophotometrically at excitation and emission wavelengths of 380 and 460 nm, respectively. […] Data were standardized on the basis of protein content and expressed as proteolytic activity/μg protein.
In these studies, animals were untreated or treated twice weekly for three weeks with DMH. […] One group of treated animals was also exposed to 0.1% dietary BBIC during and after the DMH injection period. Animals were killed one month after the last DMH injection was given. Colon biopsy samples were obtained and proteolytic activity levels were determined as described for the human mucosal biopsy samples.

Data set [2] relates to TPA-activated polymorphonuclear leukocytes (PMNs). The conditions noted are these: TPA-activated human PMNs (Frenkel et al.); cited from earlier work.
Another data set has as its system trypsin. Briefly: gelatin zymogram, trypsin control lanes. The data set is classed as biochemical. The note with it: 10 μg/ml; 5 ng trypsin; lanes 4 and 6 vs lane 1.
The next data set relates to C3H10T1/2 cells. The conditions noted are these: Yavelow et al., 1985; cited from earlier work.
Data set [3] relates to cells of patients with Bloom's syndrome. The conditions noted are these: Kennedy et al., 1984; cited from earlier work.
The test system of data set [4] is DMH-induced colon and liver carcinogenesis. The conditions noted are these: 0.5% of the diet or less (St. Clair et al.); cited from earlier work.

Method for trypsin: BBI or BBIC (at 10 μg/ml) was added to some of the biopsy sample homogenates and protease activity was analyzed on gelatin zymograms. The same rat colon sample from a 14 day DNBS/ethanol treated rat was used for the protease/zymogram analyses. The gel was run at 200 V for 40 minutes and was then cut into pieces. Each gel/column was treated as follows: 1) Control-contained 5 ng trypsin; 2) UC sample incubated in Tris at pH 8.0; 3) UC sample incubated in Tris at pH 8.0 with BBI added to achieve a final concentration of 10 μg/ml; 4) Control-contained 5 ng trypsin with BBI added to achieve a final concentration of 10 μg/ml; 5) UC sample incubated in Tris at pH 8.0 with BBIC added to achieve a final concentration of 10 μg/ml; 6) Control-contained 5 ng trypsin with BBIC added to achieve a final concentration of 10 μg/ml.
Twelve percent sodium diodecyl sulfate (SDS) polyacrylamide gels of 0.75 mm thickness were prepared containing 0.1% gelatin. A 2% gelatin stock was prepared in advance by dissolving gelatin in warm distilled water. Samples were placed in the gel wells in standard SDS-gel-loading buffer that contained 0.1% SDS but lacked beta-mercaptoethanol. They were not boiled prior to loading. The gels were run at 200 V for 40 minutes in a Bio-Rad Mini Protean II apparatus and then soaked in distilled water containing 2% Triton X-100 on a gyrorotary shaker for 15 minutes at 20° C. […]

Consider `CNNC` [DMH, dimethylhydrazine, reference compound], for which, in data set [1], the “levels of proteolytic activity in colon mucosa of DMH-exposed animals” value is “highly significant elevation”; the “Protease Activity/μg protein, Glt-Gly-Arg-MCA, Mean” value is recorded as 6.15 RFU/hr/Ag protein; the “Protease Activity/μg protein, Boc-Val-Leu-Lys-MCA, Mean” value was 10.15 RFU/hr/Ag protein; the “Protease Activity/μg protein, Boc-Val-Pro-Arg-MCA, Mean” value amounted to 43.43 RFU/hr/Ag protein.

B1: SBTI: soybean (Kunitz) trypsin inhibitor (protein, UniProt P01070 25-205, looked up)
Trypsin inhibitor A: DFVLDNEGNPLENGGTYYILSDITAFGGIRAAPTGNERCPLTVVQSRNELDKGIGTIISSPYRIRFIAEGHPLSLKFDSFAVIMLCVGIPTEWSVVEDLPEGPAVKIGENKDAMDGWFRLERVSDDEFNNYKLVFCPQQAEDDKCGDIGISIDHDDGTRRLVVSKNKPLVVQFQKLDKESL
In the case of B1, the “order of activity, inhibition of H2O2 formation” value in data set [2] is reported as “PtI-1≥PCI-2>PtI-2>COI>BBI>TOOI>LBI>SBTI”.

B2: COI: chicken ovoinhibitor (protein, UniProt P10184 1-517, looked up)
Ovoinhibitor: MTDWVLHHKVGPLDMTTRYIFPLLPLPFLPHSESKRAVCAPRCSAMRTARQFVQVALALCCFADIAFGIEVNCSLYASGIGKDGTSWVACPRNLKPVCGTDGSTYSNECGICLYNREHGANVEKEYDGECRPKHVTIDCSPYLQVVRDGNTMVACPRILKPVCGSDSFTYDNECGICAYNAEHHTNISKLHDGECKLEIGSVDCSKYPSTVSKDGRTLVACPRILSPVCGTDGFTYDNECGICAHNAEQRTHVSKKHDGKCRQEIPEIDCDQYPTRKTTGGKLLVRCPRILLPVCGTDGFTYDNECGICAHNAQHGTEVKKSHDGRCKERSTPLDCTQYLSNTQNGEAITACPFILQEVCGTDGVTYSNDCSLCAHNIELGTSVAKKHDGRCREEVPELDCSKYKTSTLKDGRQVVACTMIYDPVCATNGVTYASECTLCAHNLEQRTNLGKRKNGRCEEDITKEHCREFQKVSPICTMEYVPHCGSDGVTYSNRCFFCNAYVQSNRTLNLVSMAAC
For the molecule B2, the “order of activity, inhibition of H2O2 formation” value in data set [2] is on record as “PtI-1≥PCI-2>PtI-2>COI>BBI>TOOI>LBI>SBTI”.

B3: BBI: protease inhibitor derived from soybeans; 71 amino acid chain with 7 disulfide bonds, molecular weight approximately 8000 (protein, UniProt P01055 40-110, looked up)
Bowman-Birk type proteinase …: DDESSKPCCDQCACTKSNPPQCRCSDMRLNSCHSACKSCICALSYPAQCFCVDITDFCYEPCKPSEDDKEN
As to B3, the “inhibition of proteolytic activity of trypsin” value with trypsin is listed as “effectively inhibit the proteolytic activity of trypsin”. Besides, in data set [1], the “levels of proteolytic activity in colon mucosa of DMH-exposed animals” value was “not significantly different from control animals; also recorded: reduction in levels of these proteolytic activities”; the “Protease Activity/μg protein, Glt-Gly-Arg-MCA, Mean” value was determined as 0.81 RFU/hr/Ag protein; the “Protease Activity/μg protein, Boc-Val-Leu-Lys-MCA, Mean” value is recorded as 1.96 RFU/hr/Ag protein; the “Protease Activity/μg protein, Boc-Val-Pro-Arg-MCA, Mean” value is recorded as 22.22 RFU/hr/Ag protein. The “radiation induced transformation in C3H10T1/2 cells” value in the data set with C3H10T1/2 cells is on record as “suppresses radiation induced transformation in C3H10T1/2 cells”. Besides, the “levels of chromosome abnormalities” value in data set [3] was “reduce the levels of chromosome abnormalities”. Besides, the “order of activity, inhibition of H2O2 formation” value in data set [2] is on record as “PtI-1≥PCI-2>PtI-2>COI>BBI>TOOI>LBI>SBTI”. For the same molecule, the “effect upon the health of the mice” value in data set [4] was “no adverse effect upon the health of the mice”.
